# Data reported in US20250011391A1, “ULTRA LIGHT-SENSITIVE NEUROPSIN-BASED OPTOGENETIC TOOL FOR ACTIVATING G q-COUPLED SIGNALING AND/OR ACTIVATING CELLS” (GENANS BIOTECHNOLOGY CO., LTD, priority 2021, published 2025).
# B1: cOpn5: Chicken (Gallus gallus) Opn5 (neuropsin) ortholog, SEQ ID NO:1, GenBank NM_001130743.1 (protein, listed as Gallus lafayetii)
# chain: MSGMASDCNSSSQEEYLPHYVQQEDPFASKLSREADIIAGFYLTVIGILSTLGNGYVIFMSSKRKKKLRPAEIMTVNLAVCDLGISVVGKPFSIISFFSHRWIFGWMGCRWYGWAGFFFGCGSLITMTAVSLDRYLKICHLAYGTWLKRHHAFICLALIWAYATFWATVPFAGVGSYAPEPFGTSCTLDWWLAQASVAGQAFVLSILFFCLLFPTAVIVFSYVKIILKVKSSTKEVAHYDTRIQNSHILEMKLTKVAMLICAGFLIAWIPYAVVSVWSAFGQPDSVPIQFSVVPTLLAKSAAMYNPIIYQVIDCKFACCRSGGPKTLQKKSSLKESRMYTLSSHRDSAALSGTQLEV
# What was measured:
# [1] = system: primary astrocyte cultures; experiment: Light-induced Ca2+ transients in cOpn5-expressing primary astrocyte cultures; format: cell-based, mouse; conditions: cOpn5-expressing astrocytes; Calbryte 630 AM
# From the text: cOpn5 optogenetics allows spatially precise control of cellular activity. Restricting brief light stimulation (63 ms) into a subcellular region of individual cOpn5-expressing HEK 293T cell results in the immediate activation of single cell. […] The findings are extended into primary cell cultures. cOpn5 is expressed in primary astrocyte cultures prepared from the neonatal mouse brain with AAV vectors for bicistronic expression of cOpn5 and the EGFP marker protein (FIG. 5a). […] If the light stimulation (63 ms) is precisely restricted to only subcellular region of an individual cOpn5-expressing astrocyte, Ca^2+ signal propagation within the individual cell is observed (FIG. 3f). Resembling the tests in HEK 293T cells, wave-like propagation of Ca^2+ signals from the stimulated astrocyte that proceeded gradually to more distal, non-stimulated, astrocytes is observed (FIG. 3g, h).
# a, cOpn5 was expressed in cultured primary astrocytes using AAV-cOpn5-T2A-EGFP (green). Astrocyte identity was confirmed by GFAP immunostaining (red). Scale bar, 20 μm.
# b, Pseudocolor images of the baseline and peak Ca^2+ signals following light stimulation of cOpn5-expressing astrocytes. Scale bar, 20 μm.
# c, Plot of Ca^2+ signals and heat map representation of Ca^2+ signals across trials (n=25 cells).
# [2] = system: LH GABAergic neurons of VGAT-Cre mice; experiment: Optogenetics and food intake assay; format: in vivo, mouse; conditions: 20 Hz; 5 ms/pulse; 473 nm; 0.75 mW; vs EGFP-expressing control mice
# Protocol: Finally, the utility of cOpn5-mediated optogenetics for modulating animal behavior is assessed. The lateral hypothalamus (LH) is a brain center with known functions in reward processing and feeding behaviors^54,55. cOpn5 is expressed in the LH GABAergic neurons of VGAT-Cre mice and implanted optical fibers to deliver light pulses into the LH of freely behaving mice (FIG. 8g). […] Electrophysiological recordings on LH and ZI cOpn5-expressing neurons are performed to characterize the response profiles. The injection sites and placement of optical fibers are confirmed by whole brain slices (FIG. 10a-c). […] Thus, cOpn5 is effective for rapidly, accurately, and reversibly modulating animal behavioral states.
# g, Schematic diagram of the experimental setup for optogenetics and food intake assay. cOpn5-EGFP was expressed in GABAergic neurons within the lateral hypothalamus (LH) of VGAT-Cre mice. EGFP was expressed as a control.
# h, Summary of light-induced (20 Hz; 5 ms/pulse; 473 nm; 0.75 mW output from the fiber tip), cOpn5-mediated activation of eating behaviors. ***P=0.0003; n.s., non-significant; n=6 mice; unpaired t test. Error bars indicate S.E.M.
# [3] = system: GCaMP7b-expressing neurons in mouse S1 cortex; experiment: In vivo two-photon neuron calcium imaging following cOpn5-mediated astrocyte activation; conditions: cOpn5-mediated astrocytes activation; N=193 neurons
# Protocol: Astrocytes release ATP and other gliotransmitters also act on neuronal receptors to modulate neuron activity. Two-photon imaging of neuronal Ca^2+ signals with cOpn5-mediated astrocytes activation from head-fixed awake, behaving mice, is performed (FIG. 6e). cOpn5-expressing cells (n=406) colocalize with GFAP-staining (n=397), but not GCaMP7b-expressing neurons (FIG. 6f).
# e, Schematic diagram of the experimental setup for in vivo two-photon imaging (920 nm) of neuron calcium imaging following cOpn5-mediated astrocyte activation. Images show the expression of cOpn5 (red) in astrocytes and the expression of a GCaMP7b (green) in […] the mouse S1 cortex. Scale bar, 100 μm.
# h, Calcium events analysis of GCaMP7b-expressing neurons in 0-5 min and 15-20 min, coupled with cOpn5-mediated astrocytes activation. N=193 neurons, ****P<0.0001, Unpaired t test.
# [4] = system: Gq signaling in HEK 293T cells; experiment: Light-induced Ca2+ signal (Calbryte 630 AM dye) in opsin-expressing HEK 293T cells; format: cell-based; conditions: for Light Sensitivity / Response amplitude: Ca2+ response amplitude: Table 8
# Protocol: (§1) Whether heterologous expression of the Opn5 orthologs from chicken, turtles, humans and mice (which share 80-90% protein sequence identity) have the capacity to mediate blue light-induced Gq signaling activation within HEK 293T cells is tested (FIG. 1a and table 7). Blue light for stimulation and the red intracellular calcium indicator Calbryte™ 630 AM dye are used to monitor the relative Ca^2+ response (FIG. 1b).
# b, Pseudocolor images of the Ca2+ signal before and after blue light stimulation (10 s; 100 μW/mm^2; 488 nm) in HEK 293T cells expressing Opn5 from three species (Gallus gallus, Homo sapiens, and Mus musculus). Scale bar, 10 μm.
# Characterizing the light-activating properties of cOpn5 heterologously expressed in HEK 293T cells is performed. […] The effects of different light durations on cOpn5-expressing HEK 293T cells are tested. […] Therefore, the light sensitivity of cOpn5 is 3-4 orders of magnitude higher than the reported values of the light-sensitive Gq-coupled GPCRs and even 2-3 orders higher than those of the commonly used optogenetic tool Channelrhodopsin-2 (ChR2)(Lin, 2011; Zhang et al., 2006) (table 8).
# The performance of cOpn5 to that of opto-a1AR, a chimera GPCR engineered by mixing rhodopsin with Gq-coupled adrenergic receptor is compared. […] The performance of cOpn5 to that of opn4, a natural opsin which was reported as a tool for Gq signaling activating is also compared. […] Therefore, compared with existing opsin-based tools (opto-a1AR and opn4), cOpn5 is much more light-sensitive (˜3 orders more sensitive), requires much shorter time exposure (10 ms vs. 60 s), and produces stronger responses. […]
# Experiments description: the following table 9 is a partial list of cOpn5 orthologs from vertebrata tested in the present invention. Whole genes of all reported opsin5 orthologs from vertebrata (the vertebrates subphylum, including rotundia, cartilaginous fishes, bony fishes, Amphibia, reptila, ornitha and mammals) are synthetized, and expressed in HEK 293T cells. Calcium imaging with or without 470 nm blue light stimulation is performed to test the sensitivity of the opsin 5 orthologs in response to light. The time course of light-induced calcium signal reveal the activated degree of Gq signaling pathway and the sensitivity of these orthologs.
# Gi signaling = experiment: cAMP levels in Opn5-expressing HEK 293T cells after photostimulation; format: cell-based; conditions: without additional retinal; 10 μM forskolin preincubation
# Protocol: as §1
# f, Light has no effect on cAMP levels (10 μM forskolin preincubation) in cOpn5-expressing HEK 293T cells without additional retinal in the medium (left panel).
# [5] = 10 ms 16 μW/mm2 470 nm, mean±S.E.M., n=10 cells
molecule,measurement,setting,value
B1,Ca2+ transients on blue light illumination,[1],~8 ΔF/F
same,food intake on light stimulation,[2],significant increase in food intake
same,"neuron activity, 15-20 min compared to 0-5 min",[3],significantly elevates neuron activity
same,light sensitivity higher than reported values of Channelrhodopsin-2 (ChR2),[4],2-3 orders of magnitude
same,light sensitivity higher than reported values of light-sensitive Gq-coupled GPCRs,[4],3-4 orders of magnitude
same,more light-sensitive than opto-a1AR and opn4,[4],~3 orders
same,10% peak activation time of Ca2+ signal,[4]; [5],1.36 ± 0.55 s
same,90% peak activation time of Ca2+ signal,[4]; [5],2.37 ± 0.87 s
same,decay time τ of Ca2+ signal,[4]; [5],18.66 ± 4.98 s
same,Ca2+ signals without extracellular Ca2+,"[4]; 10 ms, 16 μW/mm2, 470 nm",resistant to the removal of extracellular Ca^2+
same,light duration at which Ca2+ response achieves saturation,"[4]; 16 μW/mm2, 470 nm",over 10 ms
same,Ca2+ response to longer-wavelength visible light (561 nm or above),[4]; 100 μW/mm2,completely ineffective
same,Ca2+ response to UVA light (365 and 395 nm),"[4]; 100 μW/mm2, versus 470 nm",less effective
same,light intensity producing about half maximum response,"[4]; 470 nm, 10 ms",~4.8 μW/mm^2
same,light intensity producing full maximum response / full activation,"[4]; 470 nm, 10 ms",16 μW/mm^2
same,light duration required for full activation,"[4]; 470 nm, 16 μW/mm2",10 ms
same,Light Sensitivity,"[4]; HEK 293T cells, 10 ms stimulation, response ~3.0 ΔF/F",16 μW/mm^2
same,Response amplitude: Ca2+ response amplitude,"[4]; HEK 293T cells, 470 nm, 0.026 μW/mm2, >2 s",~1 (ΔE/F)
same,Light Sensitivity,"[4]; HEK 293T cells, >2 s stimulation, response ~1",0.026 μW/mm^2
same,Response amplitude: Ca2+ response amplitude,"[4]; HEK 293T, light as in the row's sensitivity and duration columns",~3.0 (ΔF/F)
same,light-induced increase in Ca2+ signal,"[4]; blue light 10 s, 100 μW/mm2, 488 nm, no exogenous retinal",~3 ΔF/F
same,peak amplitudes of Ca2+ signals,"[4]; cOpn5-expressing cells, 10 ms blue light pulses at 16 μW/mm2",3-8 ΔF/F
same,more rapid than opto-a1AR or opn4 (temporal resolution),[4]; in response to 10 ms light pulses,~3 orders of magnitude
same,response kinetics versus hM3Dq-expressing cells,[4]; light 10 s vs CNO puff 100 nM 10 s,faster and temporally more precise response
same,wavelength eliciting the strongest Ca2+ transients,[4]; wavelengths 365-630 nm at fixed 100 μW/mm2,470 nm
same,effect of light on cAMP levels,Gi signaling,has no such effect
